This is an account of results in article PMC7881018, “Granulovirus PK-1 kinase activity relies on a side-to-side dimerization mode centered on the regulatory αC helix” (Nature Communications, 2021).

The target in one experiment is T1, CpGV PK-1 (Cydia pomonella granulosis virus (isolate Mexican), UniProt Q91F41).
T1 construct: gene orf3 pk-1; full-length (residues 1-279), E. coli expressed; assay protein codon-optimised, His6 tag cut by TEV; crystal protein amplified from genomic DNA, TEV-cleavable His6-MBP tag; homodimer 66 kDa
The experiment is described as follows: X-ray crystal structure, […] A. The experiment is classed as binding. The conditions noted are these: co-crystallised with 1 mM AMP and 10 mM MnCl2; ATP site; 18 C.

Experiment [1] deals with Cydia pomonella granulovirus protein kinase-1 (PK-1), full-length wild type (pPROEX Htb construct) (Cydia pomonella granulovirus (CpGV)). In words: SEC.
The target is the same in experiment [2]. The experiment is described as follows: SAXS with inline SEC; 5 mg/mL (152 μM) injected on Superdex 200 5/150 Increase, 20 mM HEPES pH 7.5, 200 mM NaCl, 5% glycerol, 12 °C; scatter compared with the crystal dimer (CRYSOL), mass by SAXSMoW2.
For experiment [3] the target is unchanged. In words: AUC; sedimentation velocity, 0.9 mg/mL (27 μM), 20 °C, 50,000 rpm, 20 mM HEPES pH 7.5, 200 mM NaCl; c(s) model.
In experiment [4] the target is PK-1 15-279, truncated PK-1 lacking the domain-swapped N-terminal helix (Cydia pomonella granulovirus (CpGV)). In words: SEC.
Experiment [5] deals with PK-1 D141N, full length (Cydia pomonella granulovirus (CpGV)). In words: SEC. A general note: SEC sorts molecules by how far they enter the pores of the column.
The target in experiment [6] is PK-1 D160N, full length (Cydia pomonella granulovirus (CpGV)). The experiment is described as follows: SEC.
Experiment [7] has as its target PK-1 E217DNEEE>QNNQQQ, acidic αF-αG loop mutant (Cydia pomonella granulovirus (CpGV)). In words: SEC.
Experiment [8] addresses PK-1 K49A, full length (Cydia pomonella granulovirus (CpGV)). The experiment is described as follows: SEC.

On to `Nc1ncnc2c1ncn2[C@@H]1O[C@H](COP(=O)(O)O)[C@@H](O)[C@H]1O` [AMP], for which the “X-ray crystal structure, 2.01 A” value at CpGV PK-1 is listed as “crystal structure of PK-1 from C. pomonella granulovirus (CpGV) in complex with AMP”.
Regarding “Cydia pomonella granulovirus protein kinase-1 (PK-1), full-length wild type (pPROEX Htb construct) (enzyme)”, the stoichiometry N in [1], in experiment [2] and in experiment [3] was 2 each time.
In turn, “PK-1 15-279, truncated PK-1 lacking the domain-swapped N-terminal helix (domain or fragment)” displayed a stoichiometry N in [4] of 2.
Take PK-1 D141N, full length (enzyme): the stoichiometry N in experiment [5] was found to be 2.
PK-1 D160N, full length (enzyme): the stoichiometry N in [6] was 2.
In turn, “PK-1 E217DNEEE>QNNQQQ, acidic αF-αG loop mutant (enzyme)” gave a stoichiometry N in experiment [7] of 2.
In experiment [8], PK-1 K49A, full length (enzyme) returned a stoichiometry N of 2.

One may read the stoichiometry N as the number of molecules, sites or subunits per partner or assembly.
